Molecular target: chicken LPCAT3 (cLPCAT3), Twin-Strep tag removed, purified in LMNG/GDN (Gallus gallus)
Experiment: cryo-EM structure; cLPCAT3 extracted with LMNG, dimer fractions from SEC in GDN; with 0.2 mM arachidonoyl CoA (3.49 Å) or 0.5 mM 12:0-LPC (3.57 Å); C2 symmetry

## chicken LPCAT3 (cLPCAT3), Twin-Strep tag removed, purified in LMNG/GDN (enzyme)
  stoichiometry N: 2
